Article PMC12480911, “Visualization of liquid-liquid phase transitions using a tiny G-quadruplex binding protein”

Assays:
[1] = molecular target: T1, SERF2 (human, UniProt P84101 1-59); assay: fluorescence polarization; details: stated as sub-micromolar, FP/anisotropy: 20 mM NaPi pH 7.4, 100 mM KCl, 25 C (20-200 nM probe), NMR: same buffer, 4 C
T1 sequence: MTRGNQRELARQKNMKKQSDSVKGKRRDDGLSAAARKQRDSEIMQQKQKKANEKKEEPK

[2] = molecular target: T1, SERF2; assay: fluorescence polarization; stated as sub-micromolar; FP/anisotropy: 20 mM NaPi pH 7.4, 100 mM KCl, 25 C (20-200 nM probe); NMR: same buffer, 4 C; details: protein: recombinant; tags: His-SUMO removed; AF488-labeled in some assays; label: 6-FAM; G4
[3] = molecular target: T1, SERF2; assay: fluorescence polarization/anisotropy; stated as sub-micromolar; FP/anisotropy: 20 mM NaPi pH 7.4, 100 mM KCl, 25 C (20-200 nM probe); NMR: same buffer, 4 C; details: protein: recombinant; tags: His-SUMO removed; AF488-labeled in some assays; label: Cy3; G4
[4] = molecular target: T1, SERF2; assay: fluorescence polarization; 100 mM KCl; FP/anisotropy: 20 mM NaPi pH 7.4, 100 mM KCl, 25 C (20-200 nM probe); NMR: same buffer, 4 C; details: protein: recombinant, tags: His-SUMO removed, AF488-labeled in some assays
[5] = molecular target: T1, SERF2; assay: NMR (HSQC, imino 1H, STD); FP/anisotropy: 20 mM NaPi pH 7.4, 100 mM KCl, 25 C (20-200 nM probe); NMR: same buffer, 4 C; details: protein: recombinant; tags: His-SUMO removed; AF488-labeled in some assays; dimeric G4 (2 strands)
[6] = molecular target: T2, SERF2 K23A (human, UniProt P84101 1-59, K23A); assay: EMSA; 5 uM each; minimally affected; FP/anisotropy: 20 mM NaPi pH 7.4, 100 mM KCl, 25 C (20-200 nM probe); NMR: same buffer, 4 C; details: protein: recombinant; tags: His-SUMO removed; label: 6-FAM (FP); unlabeled (NMR, EMSA); intramolecular G4
T2 sequence: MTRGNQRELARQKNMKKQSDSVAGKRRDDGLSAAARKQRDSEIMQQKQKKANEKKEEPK

[7] = molecular target: T3, SERF2 K25A (human, UniProt P84101 1-59, K25A); assay: as above; details: protein: recombinant; tags: His-SUMO removed; label: 6-FAM (FP); unlabeled (NMR, EMSA); intramolecular G4
T3 sequence: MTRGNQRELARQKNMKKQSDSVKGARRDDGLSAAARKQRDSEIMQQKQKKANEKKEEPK

[8] = molecular target: T4, SERF2 N-terminal domain (human, UniProt P84101 1-32); assay: fluorescence polarization; 100 mM KCl; FP/anisotropy: 20 mM NaPi pH 7.4, 100 mM KCl, 25 C (20-200 nM probe); NMR: same buffer, 4 C; details: protein: recombinant; label: 6-FAM (FP); unlabeled (NMR, EMSA); intramolecular G4
T4 chain: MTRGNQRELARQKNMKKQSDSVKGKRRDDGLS

[9] = molecular target: T1, SERF2; assay: EMSA; 10 uM RNA, 5-40 uM SERF2; FP/anisotropy: 20 mM NaPi pH 7.4, 100 mM KCl, 25 C (20-200 nM probe); NMR: same buffer, 4 C; details: protein: recombinant; tags: His-SUMO removed; AF488-labeled in some assays; G4

## TERRA60
[1]; AF488-SERF2, similar to TERRA23
  Kd: < 1000 nM

## polyG
[1]
  Kd: < 1000 nM

## GGAGGAGGAGGAGGAGGAGGA (structured_RNA) [(GGA)7]
[2]
  Kd: < 1000 nM

## AGGAGGAGGAGGAGG (structured_RNA) [(AGG)5]
[3]
  Kd: < 1000 nM

## UGGGGUUGGGGUUGGGGUUGGGGUUGGGGUUGGGGU (structured_RNA) [(UG4U)6]
[4]; label: 6-FAM, G4
  Kd: 730 ± 250 nM

## UUAGGGUUAGGG (structured_RNA) [TERRA12]
[5]
  binding result: binds

## GGGGCCGGGGCCGGGGCCGGGGCC (structured_RNA) [(G4C2)4 RNA]
[4]; label: 6-FAM, G4
  Kd: 880 ± 100 nM

## UAGGGUUAGGGUUAGGGUUAGGG (structured_RNA) [TERRA23]
[6]
  binding result: binds
[7]
  binding result: binds
[8]
  binding signal: ~10 fold weaker than full length
[4]; label: 6-FAM (FP), unlabeled (NMR, EMSA), intramolecular G4
  Kd: 300 ± 20 nM

## GGGAGGGAGGGAGGGA (structured_RNA) [(GGGA)4]
[2]
  Kd: < 1000 nM

## GAAGGGGAGGGGGCUGGGGGGGGGCAGGG (structured_RNA) [Mark2 rG4]
[4]; label: 6-FAM (FP), G4
  Kd: 4500 ± 500 nM

## GGGAAGGGAAGGGGAGUGGG (structured_RNA) [Stxbp5 rG4]
[9]
  binding result: binds
